# Measurements reported in patent US20150175992A1.
# Assays:
# Assay in all cases: cell-based or functional assay
# [1] = target: Bacillus subtilis XynA variant G13Y/K99Y/T104W/T110A/Y113D/N114F/R122F/K154R/N159D/Q175L (Bacillus subtilis) (UniProt P18429)
# [2] = target: Bacillus subtilis XynA variant G13Y/I77V/K99Y/T104W/T110A/Y113D/R122F/K154R/N159D/Q175L (Bacillus subtilis) (UniProt P18429)
# [3] = target: Bacillus subtilis XynA variant G13Y/K99Y/T104W/T110A/Y113D/R122F/K154R/N159D/Q175K (Bacillus subtilis) (UniProt P18429)
# [4] = target: Bacillus subtilis XynA variant G13Y/K99Y/T104W/T110A/Y113D/R122F/K154R/N159D/Q175/V81I (Bacillus subtilis) (UniProt P18429)
# [5] = target: Bacillus subtilis XynA variant G13Y/G34K/T110A/Y113D/R122D/Q175L (Bacillus subtilis) (UniProt P18429)
# [6] = target: Bacillus subtilis XynA variant D11F/R122D/T110A/Y113A (Bacillus subtilis) (UniProt P18429)
# [7] = target: Bacillus subtilis XynA variant G13Y/I77S/K99Y/T104W/T110A/Y113D/R122F/K154R/N159D/Q175L (Bacillus subtilis) (UniProt P18429)
# [8] = target: Bacillus subtilis XynA variant G13Y/I77L/K99Y/T104W/T110A/Y113D/R122F/K154R/N159D/Q175L (Bacillus subtilis) (UniProt P18429)
# [9] = target: Bacillus subtilis XynA variant G13Y/K99Y/T104W/T110A/Y113D/N114Y/R122F/K154R/N159D/Q175K (Bacillus subtilis) (UniProt P18429)
# [10] = target: Bacillus subtilis XynA variant G13Y/K99Y/T104W/T110A/Y113D/N114Y/R122F/K154R/N159D/Q175L (Bacillus subtilis) (UniProt P18429)
# [11] = target: Bacillus subtilis XynA variant G13Y/T110A/Y113D/R122D/S162E/Q175L (Bacillus subtilis) (UniProt P18429)
# [12] = target: Bacillus subtilis XynA variant G13Y/T110A/Y113D/R122D/W164F/Q175L (Bacillus subtilis) (UniProt P18429)
# [13] = target: Bacillus subtilis XynA variant G13Y/K99Y/T104W/T110A/Y113D/N114D/R122F/K154R/N159D/Q175L (Bacillus subtilis) (UniProt P18429)
# [14] = target: Bacillus subtilis XynA variant G13Y/K99Y/T104W/T110A/Y113D/R122F/K154R/N159D/Q175L (Bacillus subtilis) (UniProt P18429)
# [15] = target: Bacillus subtilis XynA variant D11F/R122D/T110A (Bacillus subtilis) (UniProt P18429)
# [16] = target: Bacillus subtilis XynA variant G13Y/K99Y/T104W/T110A/Y113D/I118V/R122F/K154R/N159D/Q175L (Bacillus subtilis) (UniProt P18429)
# [17] = target: Bacillus subtilis XynA variant G13Y/K99Y/T104W/T110A/Y113D/N114D/R122F/K154R/N159D/Q175K (Bacillus subtilis) (UniProt P18429)
# [18] = target: Bacillus subtilis XynA variant G13Y/T110A/Y113D/R122D/Q175L (Bacillus subtilis) (UniProt P18429)
# [19] = target: Bacillus subtilis xylanase variant BS3 (wildtype with D11F/R122D mutations) (Bacillus subtilis) (UniProt P18429)
# [20] = target: Bacillus subtilis XynA variant G13Y/T110A/Y113D/R122D/S162D/Q175L (Bacillus subtilis) (UniProt P18429)
# [21] = target: Bacillus subtilis XynA variant G13Y/K99Y/T104W/T110A/Y113D/R122F/K154R/N159D/Y166F/Q175L (Bacillus subtilis) (UniProt P18429)
# [22] = target: Bacillus subtilis XynA variant G13Y/T110A/Y113D/R122D/K154R/N159D/Q175L (Bacillus subtilis) (UniProt P18429)
# [23] = target: Bacillus subtilis XynA wildtype xylanase (SEQ ID No. 1) (Bacillus subtilis) (UniProt P18429)
# [24] = target: Bacillus subtilis XynA variant G13Y/T110A/Y113D/R122F/Q175L (Bacillus subtilis) (UniProt P18429)
# [25] = target: Bacillus subtilis XynA variant G13Y/I77M/K99Y/T104W/T110A/Y113D/R122F/K154R/N159D/Q175L (Bacillus subtilis) (UniProt P18429)
# [26] = target: Bacillus subtilis XynA variant G13Y/I77Y/K99Y/T104W/T110A/Y113D/R122F/K154R/N159D/Q175L (Bacillus subtilis) (UniProt P18429)
substance,measurement,setting,value
crude inhibitor preparation (containing both TAXI and XIP) from wheat (Triticum aestivum) flour,% Activity @ 50 XIU/ml (residual xylanase activity),[1],79%
same,% Activity @ 50 XIU/ml (residual xylanase activity),[2],45%
same,% Activity @ 50 XIU/ml (residual xylanase activity),[3],72%
same,% Activity @ 50 XIU/ml (residual xylanase activity),[4],46%
same,% Activity @ 50 XIU/ml (residual xylanase activity),[5],97%
same,% Activity @ 5.6 XIU/ml (residual xylanase activity),[6],99%
same,% Activity @ 50 XIU/ml (residual xylanase activity),[7],20%
same,% Activity @ 50 XIU/ml (residual xylanase activity),[8],75%
same,% Activity @ 50 XIU/ml (residual xylanase activity),[9],84%
same,% Activity @ 50 XIU/ml (residual xylanase activity),[10],78%
same,% Activity @ 50 XIU/ml (residual xylanase activity),[11],44%
same,% Activity @ 50 XIU/ml (residual xylanase activity),[12],29%
same,% Activity @ 50 XIU/ml (residual xylanase activity),[13],79%
same,% Activity @ 50 XIU/ml (residual xylanase activity),[14],64%
same,% Activity @ 5.6 XIU/ml (residual xylanase activity),[15],98%
same,% Activity @ 33.5 XIU/ml (residual xylanase activity),[15],100%
same,% Activity @ 50 XIU/ml (residual xylanase activity),[16],79%
same,% Activity @ 50 XIU/ml (residual xylanase activity),[17],79%
same,% Activity @ 33.5 XIU/ml (residual xylanase activity),[18],50%
same,% Activity @ 5.6 XIU/ml (residual xylanase activity),[19],100%
same,% Activity @ 33.5 XIU/ml (residual xylanase activity),[19],100%
same,% Activity @ 50 XIU/ml (residual xylanase activity),[19],95%
same,% Activity @ 50 XIU/ml (residual xylanase activity),[20],40%
same,% Activity @ 50 XIU/ml (residual xylanase activity),[21],68%
same,% Activity @ 50 XIU/ml (residual xylanase activity),[22],32%
same,% Activity @ 5.6 XIU/ml (residual xylanase activity),[23],29%
same,% Activity @ 50 XIU/ml (residual xylanase activity),[24],65%
same,% Activity @ 50 XIU/ml (residual xylanase activity),[25],46%
same,% Activity @ 50 XIU/ml (residual xylanase activity),[26],37%
